Reference: patent publication US20220348629A1 (EUREKA THERAPEUTICS, published 2022)
Substitutions are numbered along the chain they refer to. Blank lines part the entries; values can stand above or below the binder they belong to.

Experiments:
[1] = molecular target: T1, PE-labeled AFP158/HLA-A*02:01 tetramer (human, biotinylated via the BSP peptide linked to the C-terminal end of the HLA-A*02:01 extracellular domain); test: flow cytometry; J.RT3-T3.5 cells transduced with the construct, stained with PE-labelled AFP158/HLA-A*02:01 tetramer
T1 construct: monomers single chain; also called AFP158 tetramer; AFP158/HLA-A*02:01 tetramers; not shown: BSP peptide (BirA biotinylation site) at the C-terminus

[2] = molecular target: T1, PE-labeled AFP158/HLA-A*02:01 tetramer; test: flow cytometry; Jurkat cells transduced with the construct, stained with PE-labelled AFP158/HLA-A*02:01 tetramer
[3] = molecular target: T1, PE-labeled AFP158/HLA-A*02:01 tetramer; test: flow cytometry, AFP158 tetramer binding on transduced T cells
Method: Primary human T-cells were used for transduction after one-day stimulation with CD3/CD28 beads (Dynabeads®, Invitrogen) in the presence of interleukin-2 (IL-2) at 100 U/ml. Concentrated lentiviruses were applied to T-cells in Retronectin-(Takara) coated 6-well plates for 96 hours. Transduction efficiencies of the anti-AFP and anti-CD19 chimeric constructs were assessed by flow cytometry, using biotinylated AFP158/HLA-A*02:01 tetramer (“AFP158 tetramer”) with PE-conjugated streptavidin or anti-myc antibody respectively. Repeat flow cytometry analyses were done on day 5 and every 3-4 days thereafter.
Specific lysis was measured after 16 hr incubation using the Cytox 96 Non-radioactive Cytotoxicity Assay (Promega).

% of cells in gate high [1]: 24.2%
% of cells in gate low [1]: 13.8%
% of cells in gate negative [1]: 63.4%
% of cells in gate high [2]: 19%
% of cells in gate low [2]: 9.54%
% of cells in gate negative [2]: 71.5%
B1: anti-AFP158/HLA-A*02:01-abTCR-6MD (other)
chain 1: EVQLVQSGAEVKKPGESLTISCKASGYSFPNYWITWVRQMSGGGLEWMGRIDPGDSYTTYNPSFQGHVTISIDKSTNTAYLHWNSLKASDTAMYYCARYYVSLVDIWGQGTLVTVSSASTKGPSVFPLAPSSKSTSGGTAALGCLVKDYFPEPVTVSWNSGALTSGVHTFPAVLQSSGLYSLSSVVTVPSSSLGTQTYICNVNHKPSNTKVDKRVEPKSCEVKTDSTDHVKPKETENTKQPSKSCHKPKAIVHTEKVNMMSLTVLGLRMLFAKTVAVNFLLTAKLFFLYPYDVPDYA
chain 2: QSVLTQPASVSGSPGQSITISCTGTSSDVGGYNYVSWYQQHPGKAPKLMIYDVNNRPSEVSNRFSGSKSGNTASLTISGLQAEDEADYYCSSYTTGSRAVFGGGTKLTVLGQPKANPTVTLFPPSSEELQANKATLVCLISDFYPGAVTVAWKADGSPVKAGVETTKPSKQSNNKYAASSYLSLTPEQWKSHRSYSCQVTHEGSTVEKTVAPTECSPIKTDVITMDPKDNCSKDANDTLLLQLTNTSAYYMYLLLLLKSVVYFAIITCCLLRRTAFCCNGEKSDYKDHDGDYKDHDIDYKDDDDK
notes: also called anti-AFP158 abTCR

% of cells in gate high [1]: 9.41%
% of cells in gate low [1]: 4.98%
% of cells in gate negative [1]: 86.1%
% of cells in gate high [2]: 7.64%
% of cells in gate low [2]: 3.7%
% of cells in gate negative [2]: 88.7%
B2: anti-AFP158/HLA-A*02:01-abTCR-5 (other)
chain 1: QSVLTQPASVSGSPGQSITISCTGTSSDVGGYNYVSWYQQHPGKAPKLMIYDVNNRPSEVSNRFSGSKSGNTASLTISGLQAEDEADYYCSSYTTGSRAVFGGGTKLTVLGQPKANPTVTLFPPSSEELQANKATLVCLISDFYPGAVTVAWKADGSPVKAGVETTKPSKQSNNKYAASSYLSLTPEQWKSHRSYSCQVTHEGSTVEKTVAPTECSDHVKPKETENTKQPSKSCHKPKAIVHTEKVNMMSLTVLGLRMLFAKTVAVNFLLTAKLFFLYPYDVPDYA
chain 2: EVQLVQSGAEVKKPGESLTISCKASGYSFPNYWITWVRQMSGGGLEWMGRIDPGDSYTTYNPSFQGHVTISIDKSTNTAYLHWNSLKASDTAMYYCARYYVSLVDIWGQGTLVTVSSASTKGPSVFPLAPSSKSTSGGTAALGCLVKDYFPEPVTVSWNSGALTSGVHTFPAVLQSSGLYSLSSVVTVPSSSLGTQTYICNVNHKPSNTKVDKRVEPKSCMDPKDNCSKDANDTLLLQLTNTSAYYMYLLLLLKSVVYFAIITCCLLRRTAFCCNGEKSDYKDHDGDYKDHDIDYKDDDDK

% of cells in gate high [1]: 8%
% of cells in gate low [1]: 5.35%
% of cells in gate negative [1]: 87.2%
% of cells in gate high [2]: 6.17%
% of cells in gate low [2]: 4.36%
% of cells in gate negative [2]: 89.5%
B3: anti-AFP158/HLA-A*02:01-abTCR-6 (other)
chain 1: EVQLVQSGAEVKKPGESLTISCKASGYSFPNYWITWVRQMSGGGLEWMGRIDPGDSYTTYNPSFQGHVTISIDKSTNTAYLHWNSLKASDTAMYYCARYYVSLVDIWGQGTLVTVSSASTKGPSVFPLAPSSKSTSGGTAALGCLVKDYFPEPVTVSWNSGALTSGVHTFPAVLQSSGLYSLSSVVTVPSSSLGTQTYICNVNHKPSNTKVDKRVEPKSCDHVKPKETENTKQPSKSCHKPKAIVHTEKVNMMSLTVLGLRMLFAKTVAVNFLLTAKLFFLYPYDVPDYA
chain 2: QSVLTQPASVSGSPGQSITISCTGTSSDVGGYNYVSWYQQHPGKAPKLMIYDVNNRPSEVSNRFSGSKSGNTASLTISGLQAEDEADYYCSSYTTGSRAVFGGGTKLTVLGQPKANPTVTLFPPSSEELQANKATLVCLISDFYPGAVTVAWKADGSPVKAGVETTKPSKQSNNKYAASSYLSLTPEQWKSHRSYSCQVTHEGSTVEKTVAPTECSMDPKDNCSKDANDTLLLQLTNTSAYYMYLLLLLKSVVYFAIITCCLLRRTAFCCNGEKSDYKDHDGDYKDHDIDYKDDDDK

AFP 158 tetramer+ (percent) [3]: 64.5 percent
B4: anti-AFP158/HLA-A*02:01 abTCR with IgG1 CH1 domain (other)
heavy: EVQLVQSGAEVKKPGESLTISCKASGYSFPNYWITWVRQMSGGGLEWMGRIDPGDSYTTYNPSFQGHVTISIDKSTNTAYLHWNSLKASDTAMYYCARYYVSLVDIWGQGTLVTVSSASTKGPSVFPLAPSSKSTSGGTAALGCLVKDYFPEPVTVSWNSGALTSGVHTFPAVLQSSGLYSLSSVVTVPSSSLGTQTYICNVNHKPSNTKVDKRVEPKSCEVKTDSTDHVKPKETENTKQPSKSCHKPKAIVHTEKVNMMSLTVLGLRMLFAKTVAVNFLLTAKLFFL
light: QSVLTQPASVSGSPGQSITISCTGTSSDVGGYNYVSWYQQHPGKAPKLMIYDVNNRPSEVSNRFSGSKSGNTASLTISGLQAEDEADYYCSSYTTGSRAVFGGGTKLTVLGQPKANPTVTLFPPSSEELQANKATLVCLISDFYPGAVTVAWKADGSPVKAGVETTKPSKQSNNKYAASSYLSLTPEQWKSHRSYSCQVTHEGSTVEKTVAPTECSPIKTDVITMDPKDNCSKDANDTLLLQLTNTSAYYMYLLLLLKSVVYFAIITCCLLRRTAFCCNGEKS

AFP 158 tetramer+ (percent) [3]: 22.2 percent
B5: anti-AFP158/HLA-A*02:01 abTCR with IgG4 CH1 domain (other)
heavy: B4 heavy with S131C, K133R, G137E, G138S, Q196K, I199T, N203D, P217S, S219Y, C220G
light: B4 light

% of cells in gate high [1]: 5.68%
% of cells in gate negative [1]: 19.5%
% of cells in gate high [2]: 3.7%
% of cells in gate low [2]: 56.2%
% of cells in gate negative [2]: 40.2%
B6: anti-AFP158/HLA-A*02:01-abTCR-3 (other)
chain 1: EVQLVQSGAEVKKPGESLTISCKASGYSFPNYWITWVRQMSGGGLEWMGRIDPGDSYTTYNPSFQGHVTISIDKSTNTAYLHWNSLKASDTAMYYCARYYVSLVDIWGQGTLVTVSSASTKGPSVFPLAPSSKSTSGGTAALGCLVKDYFPEPVTVSWNSGALTSGVHTFPAVLQSSGLYSLSSVVTVPSSSLGTQTYICNVNHKPSNTKVDKRVEPKSCESSCDVKLVEKSFETDTNLNFQNLSVIGFRILLLKVAGFNLLMTLRLWSSDYKDHDGDYKDHDIDYKDDDDK
chain 2: QSVLTQPASVSGSPGQSITISCTGTSSDVGGYNYVSWYQQHPGKAPKLMIYDVNNRPSEVSNRFSGSKSGNTASLTISGLQAEDEADYYCSSYTTGSRAVFGGGTKLTVLGQPKANPTVTLFPPSSEELQANKATLVCLISDFYPGAVTVAWKADGSPVKAGVETTKPSKQSNNKYAASSYLSLTPEQWKSHRSYSCQVTHEGSTVEKTVAPTECSADCGFTSVSYQQGVLSATILYEILLGKATLYAVLVSALVLMAMVKRKDFYPYDVPDYA

% of cells in gate high [1]: 0.928%
% of cells in gate low [1]: 19.1%
% of cells in gate negative [1]: 80.1%
% of cells in gate high [2]: 0.574%
% of cells in gate low [2]: 12.3%
% of cells in gate negative [2]: 87.1%
B7: anti-AFP158/HLA-A*02:01-abTCR-4 (other)
chain 1: QSVLTQPASVSGSPGQSITISCTGTSSDVGGYNYVSWYQQHPGKAPKLMIYDVNNRPSEVSNRFSGSKSGNTASLTISGLQAEDEADYYCSSYTTGSRAVFGGGTKLTVLGQPKANPTVTLFPPSSEELQANKATLVCLISDFYPGAVTVAWKADGSPVKAGVETTKPSKQSNNKYAASSYLSLTPEQWKSHRSYSCQVTHEGSTVEKTVAPTECSESSCDVKLVEKSFETDTNLNFQNLSVIGFRILLLKVAGFNLLMTLRLWSSDYKDHDGDYKDHDIDYKDDDDK
chain 2: EVQLVQSGAEVKKPGESLTISCKASGYSFPNYWITWVRQMSGGGLEWMGRIDPGDSYTTYNPSFQGHVTISIDKSTNTAYLHWNSLKASDTAMYYCARYYVSLVDIWGQGTLVTVSSASTKGPSVFPLAPSSKSTSGGTAALGCLVKDYFPEPVTVSWNSGALTSGVHTFPAVLQSSGLYSLSSVVTVPSSSLGTQTYICNVNHKPSNTKVDKRVEPKSCADCGFTSVSYQQGVLSATILYEILLGKATLYAVLVSALVLMAMVKRKDFYPYDVPDYA
